{
  "source": "patent US20050282254",
  "proteins": {"B1": {"name": "Pro39 (C-terminal cysteine protease domain of Semliki Forest virus non-structural protein nsP2) (protein)", "chain": "KVIEGPAAPVDAFQNKANVCWAKSLVPVLDTAGIRLTAEEWSTIITAFKEDRAYSPVVALNEICTKYYGVDLDSGLFSAPKVSLYYENNHWDNRPGGRMYGFNAATAARLEARHTFLKGQWHTGKQAVIAERKIQPLSVLDNVIPINRRLPHALVAEYKTVKGSRVEWLVNKVRGYHVLLVSEYNLALPRRRVTWLSPLNVTGADRCYDLSLGLPADAGRFDLVFVNIHTEFRIHHYQQCVDHAMKLQMLGGDALRLLKPGGSLLMRAYGYADKISEAVVSSLSRKFSSARVLRPDCVTSNTEVFLLFSNFDNGKRPSTLHQMNTKLSAVYAGEAMHTAGC"}},
  "key": {"[1]": {"target": "recombinant protein of full size thioredoxine domain, protease recognition site and truncated C-terminal region (40 aa residues) of thioredoxin [thioredoxin: P0AA25]"}, "substrate with 6/G5 site": {"target": "T1, substrate with 6/G5 site", "T1 chain": "LGRAGAGIFSS"}, "substrate with 6/S5 site": {"target": "T2, substrate with 6/S5 site", "T2 chain": "LGRAGASIFSS"}, "substrate with 6/R5 site": {"target": "T3, substrate with 6/R5 site", "T3 chain": "LGRAGARIFSS"}},
  "data": [
    {"protein": "B1", "values": [
      {"measurement": "cleavage efficiency, Pro39, SDS-PAGE", "setting": "[1]", "result": "non structured Ter substrate is poorly cleaved while Trx substrate is effectively cleaved"},
      {"measurement": "cleavage specificity, mass-spectrometry", "setting": "substrate with 6/G5 site", "result": "cleavage specificity was preserved for all of these modified recognition sites (demonstrated by mass-spectrometry)"},
      {"measurement": "cleavage specificity, mass-spectrometry", "setting": "substrate with 6/S5 site", "result": "cleavage specificity was preserved for all of these modified recognition sites (demonstrated by mass-spectrometry)"},
      {"measurement": "cleavage specificity, mass-spectrometry", "setting": "substrate with 6/R5 site", "result": "cleavage specificity was preserved for all of these modified recognition sites (demonstrated by mass-spectrometry)"}
    ]}
  ]
}
